The values below come from publication PMC5374107.

The assay addresses ICAM-1D1D5-Fc::PFD1235w head structure complex (human | Plasmodium falciparum). Description: SPR; Biacore T-200; dual binding: ICAM-1D1D5 Fc immobilized (1,800, 2,100 or 1,500 RU) on Protein A CM5 chip, head structure injected at 250 nM for 240 s, then EPCR injected, two-fold dilutions 250 nM to 16 nM, 30 µL/min, 240 s association, 720 s dissociation; 10 mM HEPES pH 8.0, 300 mM NaCl, 0.05% Tween-20; one-site kinetic model. Background: In SPR one partner is held on a chip, and binding of the other changes the refractive index at the surface.

B1: Recombinant His-tagged EPCR (receptor)
chain: SQDASDGLQRLHMLQISYFRDPYHVWYQGNASLGGHLTHVLEGPDTNTTIIQLQPLQEPESWARTQSGLQSYLLQFHGLVRLVHQERTLAFPLTIRCFLGCELPPEGSRAHVFFEVAVNGSSFVSFRPERALWQADTQVTSGVVTFTLQQLNAYNRTRYELREFLEDTCVQYVQKHISAENTKGSQTSRSYTSLVLGVLVGSFIIAGVAVGIFLCTGGRRC
modifications: biotin (biotinylated by BirA)
The Kd is the constant that tells how readily two partners part at equilibrium. One may read the koff as the rate constant with which the complex falls apart. Low readings indicate slow dissociation, high ones fast dissociation. By kon is commonly meant a measure of how fast the partners come together. Take B1: the Kd is 271 nM, the dissociation rate constant (koff) worked out at 0.00103 s⁻¹ and the kon amounted to 3600 M⁻¹ s⁻¹.
